Measurements: doi:10.1101/2021.12.29.474442, “Microtubule plus-end regulation by centriolar cap proteins” (bioRxiv, 2021)

T1: CPAP-CC1 (residues 89-196) (human, UniProt Q9HC77 89-196)
T1 construct: CPAP (CENPJ), human, residues 89-196 (coiled-coil domain CC1); Cleaved with HRV 3C (PreScission site); also called CPAP 89-196; source: E. coli BL21(DE3), purified (Ni-NTA, tag cleavage, SEC); not shown: thioredoxin, N-terminal, cleaved; His6, N-terminal, cleaved
T1 sequence (looked up): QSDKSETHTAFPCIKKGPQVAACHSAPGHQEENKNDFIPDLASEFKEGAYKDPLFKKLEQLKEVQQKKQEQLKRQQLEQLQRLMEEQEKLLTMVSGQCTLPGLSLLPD


Columns and labels:
[1] = molecular target: the molecule itself; assay: single-molecule fluorescence intensity counting (TIRF); single molecules immobilised on coverslips in MRB80 buffer; intensity compared with purified GFP (monomers) and GFP-EB3 (dimers)
[2] = molecular target: T1, CPAP-CC1 (residues 89-196); assay: cross-linking; zero-length cross-linker DMTMM (60 mM, 6 min, 25°C) followed by mass spectrometry (xQuest); conditions: both partners purified
[3] = molecular target: the molecule itself; assay: SEC-MALS; 20°C, Superdex S75 or S200 10/30, 20 mM HEPES pH 7.5, 150 mM NaCl, 2 mM DTT; about 7 mg/ml loaded; proteins alone and equimolar (also 2:1, 3:1) mixtures

Binder | stoichiometry N [1] | binding result [2] | stoichiometry N [3]
CEP97^CP110-GFP-SII (chimera of CEP97 1-650 and CP110 581-991) (other, human, UniProt Q8IW35 1-650, looked up, CEP97, human, N-terminal amino acids 1-650; A dimer by single-molecule fluorescence intensity; No linker between the two parts is told. pTT5 based vector (Addgene #52355 is the vector); also called CEP97-CP110 chimera; CP110-CEP97 fusion) MAVARVDAALPPGEGSVVNWSGQGLQKLGPNLPCEADIHTLILDKNQIIKLENLEKCKRLIQLSVANNRLVRMMGVAKLTLLRVLNLPHNSIGCVEGLKELVHLEWLNLAGNNLKAMEQINSCTALQHLDLSDNNISQIGDLSKLVSLKTLLLHGNIITSLRMAPAYLPRSLAILSLAENEIRDLNEISFLASLTELEQLSIMNNPCVMATPSIPGFDYRPYIVSWCLNLRVLDGYVISQKESLKAEWLYSQGKGRAYRPGQHIQLVQYLATVCPLTSTLGLQTAEDAKLEKILSKQRFHQRQLMNQSQNEELSPLVPVETRASLIPEHSSPVQDCQISQESEPVIQVNSWVGINSNDDQLFAVKNNFPASVHTTRYSRNDLHLEDIQTDEDKLNCSLLSSESTFMPVASGLSPLSPTVELRLQGINLGLEDDGVADESVKGLESQVLDKEEEQPLWAANENSVQMMRSEINTEVNEKAGLLPCPEPTIISAILKDDNHSLTFFPESTEQKQSDIKKPENTQPENKETISQATSEKLPMILTQRSVALGQDKVALQKLNDAATKLQACWRGFYARNYNPQAKDVRYEIRLRRMQEHIVCLTDEIRRLRKERDEERIKKFVQEEAFRFLWNQVRSLQVWQQTVDQRLSSWHFEKVKRRLDLDIDGLQKENCPYVITSGITEQERQHLPEKRYPKGSGFVNKNKMLGTSSKESEELLKSKMLAFEEMRKRLEEQHAQQLSLLIAEQEREQERLQKEIEEQEKMLKEKKAMTAEASELDINNAVELEWRKISDSSLLETMLSQADSLHTSNSNSSGFTNSAMQYSFVSANEAPFYLWGSSTSGLTKLSVTRPFGRAKTRWSQVFSLEIQAKFNKITAVAKGFLTRRLMQTDKLKQLRQTVKDTMEFIRSFQSEAPLKRGIVSAQDASLQERVLAQLRAALYGIHDIFFVMDAAERMSILHHDREVRKEKMLRQMDKMKSPRVALSAATQKSLDRKKYMKAAEMGMPNKKFLVKQNPSETRVLQPNQGQNAPVHRLLSRQGSICRKNPKKAAKCCDNLRRQHSLG | 2 |  | 
CP110-CC2 (residues 635-717) (domain or fragment, human, UniProt O43303-2 635-717, looked up, CP110, human, residues 635-717 (coiled-coil domain CC2); Homodimer alone by SEC-MALS; one chain of it stands in the heterodimer with CPAP-CC1; source: E. coli BL21(DE3), purified (Ni-NTA, tag cleavage, SEC); not shown: thioredoxin, N-terminal, cleaved; His6, N-terminal, cleaved) GTSSKESEELLKSKMLAFEEMRKRLEEQHAQQLSLLIAEQEREQERLQKEIEEQEKMLKEKKAMTAEASELDINNAVELEWRK |  | binds | 2
